The results in this text go back to the NTF2 design screens of Basanta et al. (2020).

A short description of this data set: protease stability score; higher = more stable; yeast display proteolysis, trypsin and chymotrypsin.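 Further: log10 excess protease needed over predicted unfolded state with 0 meaning unfolded.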
The sequence “DQHEQQKLAENVQKVLRKGDESRFQRLVDPNAKMTYGDKSLTGHERFRKWMQEFRHHADHVEFKEVSIHNGKLNMHAVIDVNGHKQTFVMHFQFHNGTVQHVEQTQT” displayed a protease stability score of 0.289.

As for “DEDTIKKLVKRMIDALVKNNTEEARRLLKPDVRFEAVDTEVRGPDQVATYYKKVKDLGVEIRVKEYKVEGNHAKVKYDMRHGGDQITVEAELEAKDSKVDRFRHEDDEKYQKTVKHG”, the protease stability score is 0.154.

“DEEQRRMVQELFKALQHGDPDKVEELVDPNAQLHYGDKTVTGREEMHRWIEHLLDKIRIHFQRVSVRSRNGRAIAHATVEVVFNGKPDTVTFDLEANVHNGKFRRIVLRFPEEAQKKLKR” gave a protease stability score of 1.48.

Sequence “DEDEVRKIAEDVLRIIETGNPDDAMEQADENAEVIVGDKTYSGRTELRKVIHHMREKVDHMQVKSYDAHGNKATAVFILDNNGRKDEHVVYFDFHNGRLKKVNIQKK” registered a protease stability score of 0.243.

For “DEENIRVYQEMLEAIKEGDQKRVQELVDPNVEAVYGESQVHGREDIARDLRRVREESRRDVTTYKVTDTNGQITINVDFFQTHDGRPTRKEASVHVQITNGKVKFVEMRDDQ”, the protease stability score is 0.248.

For “DTRKVQEMAKQFVQAMKDNDRTTLEKLADEDARIRVGEKELHGRDQVATMVAHMAKNIDHIRVKKLSVDENHVNLVFEVEHNGRRVRIILRITARNGRIKHIQVDPDRVRELEG”, the protease stability score was determined as 1.01.

On to “DEDTALTIAEQVMKAIQRGDEEEAEKLGKPDVEVQAFNERNKGQEMLKKAVEYVKKVGDQFEYKETRKEGNQVVTVVQVTRGGRTMEYKVDVKVEGGKVKLWRVEIPEEFAKVVEKS”, for which the protease stability score was 0.013.

“DNEFREEVKKAIDTGDPLEMVRQADKDVEVHVGDKYWHGREQVEKLMTLWKEQVDHLHVDRITHEPGRVKVDAVAQFNGVEFRFNMVIHAHNGKIKSVQFKNTDEDVKKKLEKILD”: the protease stability score was -0.288.

“DEEKQAEDFFKEQYEIFRTGDQNREKDMVDPNANVNVGEYRYHGSKDLMKLMRQLRERVDHVQVTLRSINVKNGKAFIHVEEKFKVNGRVDTDRYVIVLSNHNGKWLLVTIQRG” returned a protease stability score of 0.749.

Sequence “DKSAQDLFRKLLEALDTGDEKTAEENMDPNAHARVGDKEVHGMDEYAKHRATENRRMKIRWNSVNLRVHNGQLNVDVDVEVTENGRPSRSRARVVMRMKNGRIKRLEVNEHK” registered a protease stability score of -0.118.

“DRRQEARDIQHDQNRALKHGDQESAQRLFDENARIKIGDRQWHGSDDVMTEVREQHKKVDSIRIHVVSIDVRGDQYDINVQYNLHYDGDNDTFRATQRLKKHNGSVRVVDQHEQ” showed a protease stability score of -0.276.

On to “DEDDERQMEEVVETGDPDRMAENADPNVRVDVGDHEVHGRERAQKMWQQEKKQVDHLEVKEVHTENGRINADVVVVVNGRSLQVTVVASMHNGKIEYYSIQFTSEKQKKQWHDANG”, for which the protease stability score was -0.048.

As for “DEREQIKKVLKRLEDIFKSGDEDKARELIDPNARMEYGDKELHGREKMARFIHELRKRIDHMEISLQDFKVKGDKLVFRAHLEAEVNGRKTSMTLRVVAHVEGDKIKIKEIQIK”, the protease stability score is 1.65.

“DEEAQKTAEDFLRAFQDGNHEQLLKLMDKDAQAQYGDQRLHGREKLRQHIYELLKNIRLEYSIDDVKVDGNNVRIHMQYEAEVNGQPVKDKAKVDIVFHNGKIKTFMVHFSEEYVQTVRS” yielded a protease stability score of 0.903.

The sequence “DEKEQTDILLRAMQILTHGDEKRFEELADPNVHVDVGDKTVHGRTQARKWYHDLRRQVDRIHIKHVTVKNGRATIDVVFDRNGRKEKMVLVIQAHNGKIKRAKVEES” showed a protease stability score of -0.125.

“DTEVQQRVEHYLRLREYNSPEHLIEMVDPNAKIEIGNKEFHGMENYAHTMRKRVEEWRLEIKHISVTIRNGRVVARIDQEVDIDGNPVRYTYKVVYDAHNGNIKHIKNDVDPRQQQQQHK” had a protease stability score of 0.176.

In turn, “EEDELRKIKDLLRHGDFETLNRQAPPDATQTVGDQEFTGWEKLHKIWKDLKDRIDHLDWKRITISGETIEARYEFDVDGQRIDMSFRMEVHNGRIQHLEQRATDSDLQKRLKDVIE” registered a protease stability score of 0.069.

Sequence “DEEHVKRMATTFAKQMRHNNPDDIMKQMDKNVQLRYGDKEVEGDENVRRRLKTLHDQVDHVEVKDYTAHGNSIRIVVRLEVNGKTANFVLIVIVENGRVLKANIDPKALDSYEK” gave a protease stability score of 0.253.

In the case of “DHEAKEIAEKIQRALTSNDPDHLNRQLDPNVRLQIGDKEVEGRQEAHNWLQKVVDEQEISINISDINVNGNHIRIHAVVENQVNGRPFHYEVVIIIIIHNGRVRSQRYQLDEDQDRRIKQ”, the protease stability score worked out at 0.047.

In turn, “DEEEQRKAAHQYRKGDPDEAHHMFDENATVEIGNFHVQGREQVREAFEHMKRRADHREVDDMKIQGDKVQVDFQIVVNGQRVKATLDAKVKNGRAQSVRVEFRDEEDRTRAERWFK” gave a protease stability score of 0.042.

With “DEKNLNQLKDLIKTNDEERIHELMDPNVRLVIGDQEVQGRENVFKVLKRWRERADHVRYNDLKLHDGRAFADVEINVNGENIRVHYVYVAHNGRIKEIKVTATDEDEQRKVEDNYK”, the protease stability score came out at 1.37.

As to “DDRRLAQEMANQFRKIRETGNPDDIVQLADPNAKYRIGERDVHGKEEIKKDFQEEKDRVDRIEVEIDSIEVKNGEVRVTFILRRTHNGRRESRTLVMNARVDNGRLTMESATEK”, the protease stability score was -0.205.

Sequence “DREEVKKIKRLIETNDWRTLAQQADENVEIVYGNKTIHGREQALKFWDILRKHADHIEIKRFDNQGDKVRVNMTVEVNGRHITMNMNIVFHNGRLKEVEIRVTDEKQLKEIEDLVQ” came in with a protease stability score of 1.59.

“DERARERVEELLQVENDGDPDKVMEYFDPNAKAEIGDKHIHGRETFRHRLERTNKEMRYHLEVEHIRVNGNNVEMTFRAETEHNGQPSHDRNHAVLHITNGRIKYKRVKRDG” had a protease stability score of 0.178.

Turning to “DEQRIADNLDERFRRVMENNNEDELRKLFDKDARVRVGDKTLHGREEVDKRLREILQRADHIDIKVNDIHVRGDKINIHFKIRIVVDGRDRFYTAVVRADVHNGEAKIVELKQS”, the protease stability score stood at 0.213.

With “DENKKAEKVARDYIKNAQTNNSESLKKLADPNVEVVIGDTTYTGTKDFVKFVQEIVRQADHISLNVRSVEVQGDKADVVAEVRVDFNGNQRRQDIRFHAQLQGDKVKLKMIQYK”, the protease stability score came to 1.06.

“DETVLQVVHRFLKAVETGDPKEVRKNADPNAKAVVGDQTVSGRETLAHQIEREREEMSFEWEKVTNDVQGEHVDVDFTMRMTHNGRPDRSRVRIKYQVHNGKLTYVRVTDDK” yielded a protease stability score of -0.149.

In the case of “DEEKVKRLLKRVAEDYVSGDAETVRKLGKDDAELEVGNTTYHGKEQMYKVVEEFKKYGVRLQVRNAEVRGNKVTMEVDLDMGGDTWKFTVHVEADGGKADKVKIDVSEEVKKRIEHG”, the protease stability score came to 0.291.

For the sequence “EEELAKSYVELLKQLSEGNEENLKELMDPNARIEVGDKELHGREDIVNTWSKEAREIRIHYEIKHIEQEPGRVTIHARVEVQHDGQPSSKDFNVVFTAKNGRLTKMTVQDDG”, the protease stability score is 0.767.

In the case of “DEEKVKVARKFMEVVKENNEEDAHRLASENVDVVVGDKRLHGRSNLMRKLRKEREEWRFRISIKDIKVENGRVHIHFKVQRVVNGQPQTYEQRMVMVFHNGRVKSVHYRIPEEQLNRIES”, the protease stability score was 0.463.

In turn, “DEETIKHLVKVLEDGDKKRFQKLADPNVRMRVGDKQVHGREKAATLWQHFMDSVDHFFIDHVHIDGEKAHIRADLVVNGQRDTVSIDIKVHNGRIKDVVLRFRDPDYKRKVEKVLG” displayed a protease stability score of 1.56.

“EEKLRERIKKFIDIMQTGNPEELEKQADEDAHFEIGEKRVHGMDDYAKEVQRELEDAQVRINVDSVRASNGRVEAHATMSETRNGQPRTAELKLEAQFHNGRIKHVRLHKHQ” returned a protease stability score of -0.059.

“DEELLKEWETLVEDNNEQDLSKMADEDARVNVGDKHYHGRENVEKFITTLAQRIDRIDIKTVDNDGEKVRIDMIAKFNGHQLRVVLEMQAHNGRVKVINARATNEDQEKLWKDLVD” registered a protease stability score of 0.798.

On to “DEDEARTWANRMRKIIKEGDPKKMRHQLDKDAKAQVGDDTVHGRDKVVQLLQHILEHVDHVEIQHVEAQGNEVDIQVKLTVNGRDDSLKFDIKYHNGRVKTIRVQEQ”, for which the protease stability score is -0.084.

“DEDSDRSVAQEFFEAVQRGNKSDVHRLADKDAKAEVGEKDIDGREELTKWVRELKRRVDHLDVKSITNKPGRVHFDAEYHFNGTTEKMVIVVQVHNGKVKEVTVQRG” returned a protease stability score of 0.908.

As for “DEREMKQFIELMKQKQTGNEHHVREMFDPNAQIKVGDKTVHGKDNIREQAHRERKEMREDFRIESLDHDGERVVIKYEVQQNHNGRPKTYDVEAEAEVHNGHFKFVSVDNTE”, the protease stability score is -0.399.

“DKDERHRIAHRLNEAIRTGDPHQMLRLADKNVKVQIGEKDVRGKDAIDKYARDLRKKVDHIQLRSLDVQGEEITMTIVFNVNGRRETVVYHVDYHNGQVKRVMVRSK” yielded a protease stability score of 0.043.

The sequence “EERDMEKMDTLVRDNDWKKMKNNVDPNAQVRIGEHEYTGKQQASTAFDILQKQVDHVDIHSFKNHGDQVEVHAILRYNGQNFQVNFRFRVHNGRFKKFSVEFTSEQQNKIMEEWLG” gave a protease stability score of -0.039.

Sequence “EREVVQEAAKAINSNDFRRLSELMDKDVKMQYGDKTLSGREEVETLLKSLHEQIDTFTVDHYHVEGNKAEVDARFHFNGKRLRMHLYAVAHNGRIQEMKIQATTEHQQEELSRLWR” registered a protease stability score of 0.613.

For “DKEEFEKTAKTFMKVWTNGDPDQWKELMDPNARLQIGDKEWHGREEVREAITQFHDRVDHIEVKDLKVTEDHVRLIAVVRFNGREVKVTVNIHFENGRATHVENHFTDDDQLKRNLS”, the protease stability score is -0.084.

On to “DDRQIEVLKDYIKAVQQNDPDRMRQNADPNATFNVGDKRYHGMTEYAEEVAKHLKEMRFEIRDIRLRDHNGKVHVEYEAEYEVNGQPFTQKVSFVAEVTNGHVKRVHYSTDEDLTRIEQK”, for which the protease stability score is -0.24.

For the sequence “DEQERAERLMEEMVRVLHTGDEKRLQQLADPNARFTIGDTRVHGSDEFARLLREHADNADSMQFRVKSIEVEGNHINIKFSFSVDINGRTESYTANIRIVEKGDKMQFHTQDMK”, the protease stability score stood at 0.402.

For “DEEENKDVATTFVKAVEQGDPDKISHLFDENARAQIGDKEYHGREDLMRMAQEWRDRYDHIEIQDYKVHGNKVTAHFVMQHNGKRERRVMTAEWRNGQIHSMQVHSS”, the protease stability score was found to be 1.37.

In turn, “DDHAERQARQVQTALKTGDPNQMERMFDENAEVVYGDKRIHGEHEASRVAKRIKEEMRVEYDVRRVTDNEDHVKFHAIIVIDENGKPRTKQLDLTMQQENGKVRLVSFRQDR” registered a protease stability score of -0.048.

With “DEDQMAETLFDEIRKIWETGSEEDAKKMMDPNAHVHVGDKEVTGREEIAKRLHDEAKKADHINLTLEDVEVKGDKAQLHVRFQLHVNGKRDERRIVFVFRNHNGRLIMVTASDS”, the protease stability score turned out to be 1.44.

On to “DETNKKAVEDYIKALETGDDEMAKRLMDKNATVEIGDKEVTGREEIHEQFKRDVKEIRVRIDRVHVKDQGDKVNLRAREKQTVNGHPISFEFQVEFHAHNGKIKHVEWQIDKDQLRKLKG”, for which the protease stability score was 0.119.

For the sequence “DEEQEARDQIKKYLDIFRTGDPDQAKKLFDKDAEVRIGDKHVRGREQISDFFKKLLHKADHVEYTIQDYDVHGDKVTVHLTVVINVNGDERRNTMVIVIKVQGEKERVQSVRVG”, the protease stability score is 1.09.
